The source of these data is article PMC4653696 (The Journal of Biological Chemistry, 2015).

Test in all cases: FRET or BRET; 25 nM donor (AF555)-labelled octamers titrated with acceptor (AF647)-labelled octamers, serial dilutions from 100 nM; 45 mM KCl, 50 mM Tris-HCl pH 8.0; room temperature, 1 h equilibration; triplicate; PCA and curve fit; apparent Kd of end-to-end association of rods
On the technique in general: BRET reads energy transfer from a luciferase to a nearby fluorophore.

For data set [1], the target named is T1, Cdc11(E294C)-capped, otherwise Cys-less septin hetero-octamer (Cdc11-Cdc12-Cdc3-Cdc10-Cdc10-Cdc3-Cdc12-Cdc11) (S. cerevisiae, UniProt P32458 1-415; P32468 1-407; P32457 1-520; P25342 1-322, C43F | C137A | C138A | E294C | C40A | C278S | C124V | C253V | C279V | C266S, Alexa Fluor 555 maleimide (donor) or Alexa Fluor 647 maleimide (acceptor) on C294 (E294C); 0.7-0.8 dye molecules per subunit).
T1 construct: intact CTE (residues 303-415) restored; Cdc12, S. cerevisiae mitotic septin, Cys-less variant; Cdc3, S. cerevisiae mitotic septin, Cys-less variant; Cdc10, S. cerevisiae mitotic septin, Cys-less variant; The same preparation was labelled separately with donor (AF555) or acceptor (AF647); both are written as this one molecule; also called Cdc11^AF555; Cdc11^AF647; source: E. coli NiCo21 (DE3), …
As to conditions: both partners purified.

For data set [2], the target named is T1, Cdc11(E294C)-capped, otherwise Cys-less …. As to conditions: both partners purified. This is another data set of the same source.
Data set [3] concerns the target T2, Shs1(E344C)-capped, otherwise Cys-less septin hetero-octamer (Shs1-Cdc12-Cdc3-Cdc10-Cdc10-Cdc3-Cdc12-Shs1) (S. cerevisiae, UniProt Q07657 1-551; P32468 1-407; P32457 1-520; P25342 1-322, C29V | C148S | E344C | C40A | C278S | C124V | C253V | C279V | C266S, Alexa Fluor 555 maleimide (donor) or Alexa Fluor 647 maleimide (acceptor) on C344 (E344C)).
T2 construct: Cdc12, S. cerevisiae mitotic septin, Cys-less variant; Cdc3, S. cerevisiae mitotic septin, Cys-less variant; Cdc10, S. cerevisiae mitotic septin, Cys-less variant; Donor- and acceptor-labelled preparations are written as this one molecule; also called Shs1^AF555; Shs1^AF647; source: E. coli NiCo21 (DE3), subunits co-expressed, purified (IMAC, chitin-agarose flow-through, SEC), maleimide …
The conditions noted are these: both partners purified.

Data set [4] concerns the target T3, Shs1(Δ2–18/Δα0 E344C)-capped, otherwise Cys-less septin hetero-octamer (S. cerevisiae, UniProt Q07657 1-551; P32468 1-407; P32457 1-520; P25342 1-322, Δ2–18 | C29V | C148S | E344C | C40A | C278S | C124V | C253V | C279V | C266S, Alexa Fluor 555 maleimide (donor) on C344 (E344C)).
T3 construct: Cdc12, S. cerevisiae mitotic septin, Cys-less variant; Cdc3, S. cerevisiae mitotic septin, Cys-less variant; Cdc10, S. cerevisiae mitotic septin, Cys-less variant; also called Shs1 Δα0^AF555; Shs1(Δα0) complexes; source: E. coli NiCo21 (DE3), subunits co-expressed, purified (IMAC, chitin-agarose flow-through, SEC), maleimide dye-labelled; not shown: His6, N-terminal, kept; copies: 2 + 2 + 2 + 2
The conditions noted are these: both partners purified.

Data set [5] deals with the molecule itself.

T3 sequence (Q07657 other isoform, or with tags, fused parts or gaps with the stated changes): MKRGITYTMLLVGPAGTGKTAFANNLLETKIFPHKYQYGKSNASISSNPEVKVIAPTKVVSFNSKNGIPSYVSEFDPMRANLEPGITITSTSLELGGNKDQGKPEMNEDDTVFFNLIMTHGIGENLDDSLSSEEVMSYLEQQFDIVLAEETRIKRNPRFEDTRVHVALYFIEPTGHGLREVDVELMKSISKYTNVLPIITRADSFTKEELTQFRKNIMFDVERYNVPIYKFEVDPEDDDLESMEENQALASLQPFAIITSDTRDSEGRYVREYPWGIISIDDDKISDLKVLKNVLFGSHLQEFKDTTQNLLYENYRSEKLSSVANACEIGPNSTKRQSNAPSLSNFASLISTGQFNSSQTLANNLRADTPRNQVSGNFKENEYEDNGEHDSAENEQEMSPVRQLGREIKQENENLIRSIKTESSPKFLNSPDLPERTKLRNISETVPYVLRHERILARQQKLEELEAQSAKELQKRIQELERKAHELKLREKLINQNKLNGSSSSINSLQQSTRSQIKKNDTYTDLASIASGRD

B1: Shs1(E344C ΔCTE)-capped, otherwise Cys-less septin hetero-octamer (complex, S. cerevisiae)
chain 1: MSTASTPPINLFRRKKEHKRGITYTMLLVGPAGTGKTAFANNLLETKIFPHKYQYGKSNASISSNPEVKVIAPTKVVSFNSKNGIPSYVSEFDPMRANLEPGITITSTSLELGGNKDQGKPEMNEDDTVFFNLIMTHGIGENLDDSLSSEEVMSYLEQQFDIVLAEETRIKRNPRFEDTRVHVALYFIEPTGHGLREVDVELMKSISKYTNVLPIITRADSFTKEELTQFRKNIMFDVERYNVPIYKFEVDPEDDDLESMEENQALASLQPFAIITSDTRDSEGRYVREYPWGIISIDDDKISDLKVLKNVLFGSHLQEFKDTTQNLLYENYRSEKLSSVANACEIGP
chain 2: MSAATATAAPVPPPVGISNLPNQRYKIVNEEGGTFTVMLAGESGLGKTTFINTLFQTVLKRADGQQHRQEPIRKTVEIDITRALLEEKHFELRVNVIDTPGFGDNVNNNKAWQPLVDFIDDQHDSYMRQEQQPYRTKKFDLRVHAVLYFIRPTGHGLKPIDIETMKRLSTRANLIPVIAKADTLTAQELQQFKSRIRQVIEAQEIRIFTPPLDADSKEDAKSGSNPDSAAVEHARQLIEAMPFAIVGSEKKFDNGQGTQVVARKYPWGLVEIENDSHSDFRKLRALLLRTYLLDLISTTQEMHYETYRRLRLEGHENTGEGNEDFTLPAIAPARKLSHNPRYKEEENALKKYFTDQVKAEEQRFRQWEQNIVNERIRLNGDLEEIQGKVKKLEEQVKSLQVKKSHLK
chain 3: MSLKEEQVSIKQDPEQEERQHDQFNDVQIKQESQDHDGVDSQYTNGTQNDDSERFEAAESDVKVEPGLGMGITSSQSEKGQVLPDQPEIKFIRRQINGYVGFANLPKQWHRRSIKNGFSFNLLVVGPDGIGKTTLMKTLFNNDDIEANLVKDYEEELANDQEEEEGQGEGHENQSQEQRHKVKIKSYESVIEENGVKLNLNVIDTEGFGDFLNNDQKSWDPIIKEIDSRFDQYLDAENKINRHSINDKRIHAVLYFIEPTGHYLKPLDLKFMQSVYEKVNLIPVIAKSDILTDEEILSFKKTIMNQLIQSNIELFKPPIYSNDDAENSHLSERLFSSLPYAVIGSNDIVENYSGNQVRGRSYPWGVIEVDNDNHSDFNLLKNLLIKQFMEELKERTSKILYENYRSSKLAKLGIKQDNSVFKEFDPISKQQEEKTLHEAKLAKLEIEMKTVFQQKVSEKEKKLQKSETELFARHKEMKEKLTKQLKALEDKKKQLELSINSASPNVNHSPVPTKKKGFLR
chain 4: MDPLSSVQPASYVGFDTITNQIEHRLLKKGFQFNIMVVGQSGLGKSTLINTLFASHLIDSATGDDISALPVTKTTEMKISTHTLVEDRVRLNINVIDTPGFGDFIDNSKAWEPIVKYIKEQHSQYLRKELTAQRERFITDTRVHAILYFLQPNGKELSRLDVEALKRLTEIANVIPVIGKSDTLTLDERTEFRELIQNEFEKYNFKIYPYDSEELTDEELELNRSVRSIIPFAVVGSENEIEINGETFRGRKTRWSAINVEDINQSDFVYLREFLIRTHLQDLIETTSYIHYEGFRARQLIALKENANSRSSAHMSSNAIQR
modifications: Alexa Fluor 555 maleimide (donor) on C344 (E344C)
notes: Cdc12, S. cerevisiae mitotic septin, Cys-less variant; Cdc3, S. cerevisiae mitotic septin, Cys-less variant; Cdc10, S. cerevisiae mitotic septin, Cys-less variant; also called Shs1 ΔCTE^AF555; source: E. coli NiCo21 (DE3), subunits co-expressed, purified (IMAC, chitin-agarose flow-through, SEC), maleimide dye-labelled; not shown: His6, N-terminal, kept; copies: 2 + 2 + 2 + 2
For the molecule B1, in data set [1], the Kd was found to be 0.0304 µM.

B2: Cdc11(Δα0 E294C)-capped, otherwise Cys-less septin hetero-octamer (complex, S. cerevisiae)
chain 1: MRGITFTVMIVGQSGSGRSTFINTLFGQQVVDTSTTILLPTDTSTEIDLQLREETVELEDDEGVKIQLNIIDTPGFGDSLDNSPSFEIISDYIRHQYDEILLEESRVRRNPRFKDGRVHAALYLINPTGHGLKEIDVEFIRQLGSLVNIIPVISKSDSLTRDELKLNKKLIMEDIDRWNLPIYNFPFDEDEISDEDYETNMYLRTLLPFAIIGSNEVYEMGGDVGTIRGRKYPWGILDVEDSSISDFVILRNALLISHLHDLKNYTHEILYERYRTCALSGESVAAESIRPNLTKLNGSSSSSTTTRRNTNPFKQSNNINNDVLNPASDMHGQSTGENNETYMTREEQIRLEEERLKAFEERVQQELLLKRQELLQREKELREIEARLEKEAKIKQEE
chain 2: MSAATATAAPVPPPVGISNLPNQRYKIVNEEGGTFTVMLAGESGLGKTTFINTLFQTVLKRADGQQHRQEPIRKTVEIDITRALLEEKHFELRVNVIDTPGFGDNVNNNKAWQPLVDFIDDQHDSYMRQEQQPYRTKKFDLRVHAVLYFIRPTGHGLKPIDIETMKRLSTRANLIPVIAKADTLTAQELQQFKSRIRQVIEAQEIRIFTPPLDADSKEDAKSGSNPDSAAVEHARQLIEAMPFAIVGSEKKFDNGQGTQVVARKYPWGLVEIENDSHSDFRKLRALLLRTYLLDLISTTQEMHYETYRRLRLEGHENTGEGNEDFTLPAIAPARKLSHNPRYKEEENALKKYFTDQVKAEEQRFRQWEQNIVNERIRLNGDLEEIQGKVKKLEEQVKSLQVKKSHLK
chain 3: MSLKEEQVSIKQDPEQEERQHDQFNDVQIKQESQDHDGVDSQYTNGTQNDDSERFEAAESDVKVEPGLGMGITSSQSEKGQVLPDQPEIKFIRRQINGYVGFANLPKQWHRRSIKNGFSFNLLVVGPDGIGKTTLMKTLFNNDDIEANLVKDYEEELANDQEEEEGQGEGHENQSQEQRHKVKIKSYESVIEENGVKLNLNVIDTEGFGDFLNNDQKSWDPIIKEIDSRFDQYLDAENKINRHSINDKRIHAVLYFIEPTGHYLKPLDLKFMQSVYEKVNLIPVIAKSDILTDEEILSFKKTIMNQLIQSNIELFKPPIYSNDDAENSHLSERLFSSLPYAVIGSNDIVENYSGNQVRGRSYPWGVIEVDNDNHSDFNLLKNLLIKQFMEELKERTSKILYENYRSSKLAKLGIKQDNSVFKEFDPISKQQEEKTLHEAKLAKLEIEMKTVFQQKVSEKEKKLQKSETELFARHKEMKEKLTKQLKALEDKKKQLELSINSASPNVNHSPVPTKKKGFLR
chain 4: MDPLSSVQPASYVGFDTITNQIEHRLLKKGFQFNIMVVGQSGLGKSTLINTLFASHLIDSATGDDISALPVTKTTEMKISTHTLVEDRVRLNINVIDTPGFGDFIDNSKAWEPIVKYIKEQHSQYLRKELTAQRERFITDTRVHAILYFLQPNGKELSRLDVEALKRLTEIANVIPVIGKSDTLTLDERTEFRELIQNEFEKYNFKIYPYDSEELTDEELELNRSVRSIIPFAVVGSENEIEINGETFRGRKTRWSAINVEDINQSDFVYLREFLIRTHLQDLIETTSYIHYEGFRARQLIALKENANSRSSAHMSSNAIQR
modifications: Alexa Fluor 555 maleimide (donor) or Alexa Fluor 647 maleimide (acceptor) on C294 (E294C)
notes: Cdc12, S. cerevisiae mitotic septin, Cys-less variant; Cdc3, S. cerevisiae mitotic septin, Cys-less variant; Cdc10, S. cerevisiae mitotic septin, Cys-less variant; also called Cdc11 Δα0^AF555; Cdc11 Δα0^AF647; source: E. coli NiCo21 (DE3), subunits co-expressed, purified (IMAC, chitin-agarose flow-through, SEC), maleimide dye-labelled; not shown: His6, N-terminal, kept; copies: 2 + 2 + 2 + 2
Turning to B2, the Kd in data set [2] came to 0.0195 µM; in data set [3], 0.00813 µM; in data set [4] it was 0.00989 µM; in data set [5] it was 0.0332 µM.
